Test results from the nanobody polyreactivity screen of Harvey et al. (2022).

test: yeast display, Sf9 membrane polyspecificity reagent, FACS + sequencing; frameworks hold sequencing errors
Outline: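 After 36–48 hours of galactose induction, yeast (Saccharomyces cerevisiae BJ5465) displaying a synthetic nanobody library were stained at 4 °C for 1 hour with 10% biotinylated, detergent-solubilized Sf9 membrane reagent. Streptavidin microbeads enriched the stained cells before FACS sorting into low and high (top ~1%) gates on anti-HA and streptavidin fluorescence. Each clone's polyreactivity label reflects its gate of origin.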

Sequence	polyreactivity (PSR sort gate)
QVQLVESGGGLVQAGGSLRLSCAASAFTFQNYAMGWYRQAPGKERELVAAIDSRGGRTYYADSVKGRFTISRDNAKNTVYLQMNSLKPEDTADDYCAVAENSRFGSVGYYYWGQGTQVTVSS	low polyreactivity
QVQLVESGGGLVQEGGSLRLRWAASGFIFDTYAMGWYRQAPGKERELVAGISDGGSTYYADSVKGRFTISRDNAKNTVYLQLNSLKPEDTAVYYCAAQGEYGFTAYYPGVSWGQGTQVTLSS	low polyreactivity
QVQLVESGGGLVQAGGSLRLSCAASGFIFSGYAMGWYRQAPGKERELVAAITRSGSRTYYADSVKGRFTISRDNAKNTVYLQMNSLKPEDTAVYYCAKDKPKYGISTMDYWGQGTQVTVSS	high polyreactivity
QVQLVESGGGLVQAGGSLRLSCAASGFISHYYAMGWYRQAPGKERELVAAIRISGDRTYYADSVKGRFTISRDNAKNTVYLQMNSLKPEDTAVYYCNAVWEYYGKSDYWGQGTQVTVSS	low polyreactivity
QVQLVESGGGLVQAGGSLRLSCAASGRIFGVYAMGWYRQAPGKERELVAAISEGGGSTNYADSVKGRFTISRDNAKNTVYLQMNSLKPEDTAVYYCAADRSYYGYGYWGQGTQVTVSS	low polyreactivity
QVQLVESGGGLVQAGGRLRLSCAASGLIFWFNTMGWYRQAPGKERELVAAITSGGGSTYYADSVKGRFTISRDNAKNTVYLQMNSLKPEDTAVYYCNAGAGRWRARQWHDYWGQGTQVTVSS	low polyreactivity
QVQLVESGGGLVQAGGSLRISCAASGFTFSYYAMGWYRQAPGKERDLVAAISGRTGRTYYADSVKGRFTISRDNAKNTVYLQMNSLKPEDTAVYYCAAGYTFSRYDDDYWGQGTQVTVSW	low polyreactivity
QVQLVESGGGLVQAGGSLRLSCAASGSTFGYYAMGWYRQAPRKERELVAVITRGGSTYYADSVKGRFTISRDNAKNTVYVQMNSLKPEDTAVYYCNARVQAVHYGYWGQGTEVTVSS	high polyreactivity
QVQLVESGGGLVQAGGSLRLSCAASGRIVGYYAMGWYRQAPGKERELVATITFGGGSTYYADTVKGRFTISRDIAKNTVYLQMNSLKPEDTAVYYCAAEIYPLGSLRLGPGEYDHWGQGTQVTVSS	low polyreactivity
QVQLVESGGGLVQAGGSLRLSCAASGLTFGRYAMGWYRPAPGKERELVAAISSGGSTYYADSVKGRFTISRDNAKNTVYLQMNSLKPEDTAVYYCAADYVGWYFVSGRDYWGQGTQVTVSS	low polyreactivity
QDQLVESGVGLVQAGVSLRLSCAASGSIFESYAMGWSSQAPGKESELVAAIDYDDGSTYYADSVKGRFTISRDNAKNTVYLQMNSLKPEDTAVYYCAAKPTTYYGISDYWGQGTQVTVAS	high polyreactivity
QVQLVESGGGLVQAGGSLRLSCAASGRTFAFHDRGWYRQAPGNERELVAALTSVASTYYADSVKGRFTISRDNAKNTVYLQMNSLKPEDTAVYYCAADTRSLRPRYQLYGEDSWGQGTQVTVSS	low polyreactivity
QVQLVESGGGLVQAGGSLRLSCAASGLIFIYNTMGWSRQAPGKERELVAAISGRGGSTYYADSVKGRFTISRDNAKNTVYLQMNSLKPEDTAVYYCAAQDTYHSYGLYSWGQGTQVTVSS	low polyreactivity
QDQLVESGGGLVQAGGRLRLSCAASGFIFWLYAMGWYRQAPGKERELVASINWSGGDTYYADSVKGRFTISRDNAKNTVYLQMNSLKPEDTAVYYCAADWSNLGAYDYWGQGTQVTVSS	low polyreactivity
QVQLVDSGGGLVQAGGSLRLRSAASGFTFCTYDMGWYRQAPGKERELVAAIDSGGSTYYADSVKGRFTISRDNAKNNVYLQMNSLKPEDTAVYYCNKVVDYFWYVEYDYWGQVTQVTVSS	low polyreactivity
QVQLVESGGGLVQAGGSLRLSCAASGFTFGKNAMGWYRQAPGKERELVAAIDTGDRTNYADSVKGRFTISRDNAKNTVYLQMNSLKPEDTAVYYCATDVVFSSYDYWGQGTQVTVSS	low polyreactivity
QVQLVESGGGLVQAGCSLRLSCAASGFTFAKYAMGRYRQAPGKERELVAAITYRDGSTYYADSVKGRFTISRDYAKNTVYLQMNSLKPEDSAVYYCAAVASYVRYGYWGQGTQVTVSS	high polyreactivity
QVQLVESGGGLVQAGGSLRLSCAASGRTFSGYAMGWYRQAPGTERELVAAIDRGDGTNYADSVKGRFTISRDNAKNTVYLQMNSLKPEDTAVYYCAADYSYGSTSHTYTGFDYWGQGTQVTVSS	low polyreactivity
QVQLVESGGGLVQEGGSLRLICAASGSTFAANTMGWYRQEPGKERELVAAITDRGGSTYYADSVKGRFTISRDNAKNTVYLQMITLKPEDTAVYYSAAERPPYGYLVVGYVSTQYYYWGQGTQVTVSS	low polyreactivity
QVQLVESGGGLVQAGGSLRLSCAASGIIFLDYVMGWYRQAPGKERELVAAISRSGGTTYYADSVKGRFTISRDNAKNTVYLQMNSLKPEDTAVYYCAVRSYRDTRFYYWGQGTKVTVSS	high polyreactivity
QVQLVESGGGLVQAGGSLRVSCAASGRTFRYYDMGWYRQAPGKEREFVAAITWRGGSTYYADSVKGRFTISRDNAKNTVYLQMNSLKPEDTAVYYCAADPFDDQLQYDYWGQGTQVTVSS	low polyreactivity
QVQLVESGGGLVQAGGSLRLSCPASGSTYLIYAMGWYRQAPGKERELVARITSTGSTYYADSVKRRFTISRDNAMNTVYLHMNSLKPEDTAVYYCNAAGYQYYWHYYWGQGTQVTVSS	low polyreactivity

Sequence	polyreactivity (PSR sort gate)
QVQLVESGGGLVQAGGSLRLSCAASGPIFKRNAMGWYRQAPGKERELVAAISGSGGRTYYADSVKGRFTISRDNAKNTVYLQMNSLKPEDTAVYYCNAGGSYYARGMDYWGQGTQVTVSS	high polyreactivity
QVQLVESGGGLVQAGGSLRLSCAASGRTSRIYAMGWYRPAPGKRELVAAISGSGSRTYYADSVKGRFTISRDNAKNTVYIQMNSLKPEDTAVYYCNGRYWYRDHPPEFDYWGQGTQVTVSS	high polyreactivity
QVELVESGGGLVQAGGSRRLSCAASGSTFYAYAMGWYRQAPGKERELVAAISASGDSTYYADFVKGRFTISRDNAKNTVYLQMNSLTPEDTAVYYCAAEVYYRPQDYYTYPDYYWGQGTQVTVSS	high polyreactivity
QVQLVESGVVLVQAGGSLRLSCAASGTIFDLNAMGWYRQAPGKEREFVAAISSGGGTYYADSVKGRFTISRDNANNTVYLQMNSQKPEDTAVYYCKARARRYGGRYYYWGQGTQVTVSS	high polyreactivity
QVQLVESGGGLVQAGGSLRLSCAASGSIFYFNAMGWYRQAPGKERELVAAITYSGGSTYYADSVKGRFTISRDNAKNTFYLQMNILKPEDTAVYYCAAERRTFPLRIFDYWGQGTQVTVSS	low polyreactivity
QVQLEESGGGLVQAGGSLRLSCAASGIIFRFYTMGWYRQAPGKERELVAVITWSGGSTYYADSVKGRFSISRDNAMNTVYLQMNSLKPEATAVYYCNAEYTYGNSVYKYDYWGQGTQVTVSS	low polyreactivity
QVQLVESGGGLVQAGGSLRLSCAASGRIFRYYAMGWYRQAPGKERELVAAIRWTAGSTYYADSVKGRFTISRDNAKNTVYLQMNSLKPEDTAVYYCATDVWKYGRYEYWGQGTLVTVSS	low polyreactivity
QVQLVESGGGLVQAGGSLRLSCAASGSIFYVNTMGWYRQAPGKEREFVAAISGSGGSTRYADSVKGRFTISRDNAKNTVYLQMNSLKPEDTAVYYCAADRYTYIWYHIYDYWGQGTQVTVSS	low polyreactivity
QVQLVESGGGLVQAGGSLRLSCAASGLTFAYNTMGWYRQAPGKEREFVASISSSGGNTYYADSVKGRFTISRDNAKNTVYLQMNSLKPEDTAVYYCAAKKKYHYVASYKRFEYWGQVTQVTVSS	low polyreactivity
QVQLVESGGGLVQAGGSLRLSCAASGRIFHFYAMGWYRQAPGKERELVAAITSRTGNTYYADSVKGRYTISRDNAKNTVYLQMNSLKPEDTAVYYCAAKLVNALLHYRNWNHNNYWGQGTQVNVSS	low polyreactivity
QVQLVESGGGLVQAGGSLRLSCAASGSIFYGYAMGWYRQAPGKERELVAAITSSGTRTYYADSVKGRFTISRDNAKNTVYLQMNSLKPEDTAVYYCAADGPGYQYDYWGQGTQVTVSS	high polyreactivity
QVQLVDSGGGLVQAGGSLRLSCAASGSIFNRYVMGWYRQAPGKERELVAAISRRGGNTYYADSVKGRFTISRDNAKNTVYLQMNSLKPEDTAVYYCAAAYRSYKQFYSYGYEYWGQGTQVTVSS	high polyreactivity
QVQLVESGGGLVQAGGSLRLSCAASGSIFDTYAMGWYRQAPGKERELVAAITWSGSSTYYADSVKGRFTISRDNAKNTVYLQMNSLKPEDTAVYYCAKDYYVEVTTEYDYWGQGTQVTVSS	high polyreactivity
QVQLVESGGGLVQAGGSLRLSCAASGRTFKLYGMGWYRQAPVKEREFVAAITQGGGSTFYADSVKGRFTISRDNSKNTVYLQMNSLKPEDTAVYYCAARTQIFSRYRGFYSWGQGTQVTVSS	high polyreactivity
QVQLVESGGGLVQAGGSLRLICAASGSTFIINAMGWYRQAPGKERELVARITQRGTSTFYADSVKGRFTISRDNAKNTVYLQMNSLKPEDTAVYYCAARGSKSLGNKYDYWGQGTQVTVSS	high polyreactivity
QVQLVESGGGLVQAGGSLRLSCAASGSIIPYYAMGWYRQAPGKERELVAAISNSGGRTYYADSVKGRFTISRDNAKNTVYLQMNSLKPEDTAVYYCNAVPFYSKYDYWGQGTQVTVSS	high polyreactivity
QVQLVESGGGLVQEGGSLRLSCAASGSTFDSNAMGWYRQAPGTERELVAAIDWSGGSTYYADSVKGRFTISRDNAKNSVYLQMNSLKPEDTAVYYCAADDYSSNYGDFDYWGQGTQVTVSS	low polyreactivity
QVQLVESGGGLVQAGGSLRLSCAASGSIFGRYVMGWYRQAPGKERELVAAINRSGGRTYYADSVKGRFTISRDTAKNTVYLQMNSLKPEDTAVYYCATYTRSSASKEVPYDYWGQGTEVTVSS	high polyreactivity
QVQLVESGGGLVQAGGSLRLSCAASGSTYFRNAMGWYRQAPGKERELVADISASGGSTYYADSVKGRFTISRDNAKNTVYLQMNSLKPEDTAVYYCNALYIYFYNYLTIVYWGQGTQVTVSS	low polyreactivity
QVQLVESGGGLLQAGGSLRLSCAASGIIFSDYAMGRYRQAPRKERELVAAITSSGGSTYYADSVKGRFTISRDNAKNTVYLQMNSLKPEDPAVYYCAAQCYDYWYDYDYWGQGTQVTVSS	high polyreactivity
QVQLVESGGGLVQAGGSLRLSCAASGNTFPGYAMGWYRQAPGKEREFVATITSNDGTTYYADSVKGRFTISRDNAKNTVYLQMNSLKPEDTAVYYSAKRLSDSWPPNWGYNYWGQGTQVTVTS	low polyreactivity
